From US12252534 (Scripps Research, dated 2025) come the findings set out here.

Where a chain is given by its changes, count along the chain named. Names may count otherwise.

For assay [1], the target named is T1, cynomolgus CD3 on cynomolgus T cells (HSC-F) (cynomolgus monkey, UniProt Q95LI5 22-198; Q95LI8 22-171; Q95LI7 23-181).
T1 construct: whole, on cells; also called cyCD3+; cell surface CD3 on cynomolgus (HSC-F) T cells
Description: flow cytometry titration on HSC-F cells. The source says:
(§1) Flow cytometry was used to assess for potential differential binding to cell surface CD3 on human (Jurkat) and cynomolgus T cells as a result of the "de-immunization" process. […] After several washes, samples were acquired on a BD LSRII or BD Accuri C6 and analyzed using FlowJo software.

The target in assay [2] is T2, human CD3 on human T cells (Jurkat) (human, UniProt P07766 23-207; P04234 22-171; P09693 23-182).
T2 construct: whole, on cells; also called huCD3+; cell surface CD3 on human (Jurkat) T cells
T2 sequence (P07766 23-207, chain 1 of 3): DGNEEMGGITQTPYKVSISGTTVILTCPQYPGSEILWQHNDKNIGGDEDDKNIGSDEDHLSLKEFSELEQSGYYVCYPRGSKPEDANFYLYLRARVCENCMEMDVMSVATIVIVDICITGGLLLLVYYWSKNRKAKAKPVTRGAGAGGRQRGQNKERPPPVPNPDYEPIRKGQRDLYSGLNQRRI
T2 sequence (P04234 22-171, chain 2 of 3): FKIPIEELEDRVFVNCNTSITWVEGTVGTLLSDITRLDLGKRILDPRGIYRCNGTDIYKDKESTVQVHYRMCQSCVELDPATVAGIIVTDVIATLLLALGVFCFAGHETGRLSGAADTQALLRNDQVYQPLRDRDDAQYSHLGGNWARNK
T2 sequence (P09693 23-182, chain 3 of 3): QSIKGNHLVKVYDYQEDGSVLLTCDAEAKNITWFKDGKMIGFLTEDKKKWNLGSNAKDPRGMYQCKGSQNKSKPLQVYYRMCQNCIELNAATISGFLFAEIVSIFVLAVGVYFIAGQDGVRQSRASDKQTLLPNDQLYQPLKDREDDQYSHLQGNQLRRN
Put plainly: flow cytometry titration on Jurkat cells.
Description: as §1

Assay [3] addresses T3, recombinant human CD3 delta/epsilon complex (hu.CD3 d/e-Fc) (human, UniProt P04234 22-105; P07766 23-126).
T3 construct: not shown: Fc portion
Description: Octet (BLI), hu.CD3de-Fc captured on Fc sensor, conjugate as analyte; unit inferred, M implied. The method, then:
(§2) Analytes were serially diluted 1.2× from 6 μg/mL to 1 μg/mL in the 1×PBS. 100 mM glycine (pH 2.87) regeneration solution, and 1×PBS for baseline stabilization was also prepared. Biosensor, ligand and analytes pair is following: (1) CH-1-antibodies-recombinant human or cynomolgus monkey CD3 delta/epsilon complex, (2) Fc-recombinant human or cynomolgus monkey CD3 delta/epsilon complex-antibodies (3) CH-1-antibodies-recombinant human or cynomolgus monkey PSMA; and (4) Ni-NTA-recombinant human or cynomolgus monkey PSMA-antibodies. Prior to the binding measurements, the sensor tips were pre-hydrated in 1×PBS for 30 min, followed by 1 cycles of pre-conditioning with 60-sec dips in glycine (pH 2.87). The sensor tips were then transferred to the ligand-containing wells for a 180-sec loading step. After a 120-sec baseline dip in 1×PBS, the binding kinetics were measured by dipping the ligand-coated sensors into the wells containing corresponding analyte at varying concentrations. The binding interactions were monitored over a 180-sec association period and followed by a 7.5 to 15-min dissociation period in new wells containing fresh 1×PBS.

The target of assay [4] is T4, recombinant cynomolgus monkey CD3 delta/epsilon complex (cy.CD3 d/e-Fc) (cynomolgus monkey, UniProt Q95LI8 22-105; Q95LI5 22-117).
T4 construct: also called cynoCD3; not shown: Fc portion
T4 sequence (Q95LI8 22-105, stated change not applied, chain 1 of 2): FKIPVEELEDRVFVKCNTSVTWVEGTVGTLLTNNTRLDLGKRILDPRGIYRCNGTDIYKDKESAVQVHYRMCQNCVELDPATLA
T4 sequence (Q95LI5 22-117, stated change not applied, chain 2 of 2): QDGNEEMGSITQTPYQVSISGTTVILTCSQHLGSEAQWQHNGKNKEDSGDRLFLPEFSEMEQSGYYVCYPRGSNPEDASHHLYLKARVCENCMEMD
Description: Octet (BLI), cy.CD3 d/e-Fc captured on Fc sensor, conjugate as analyte; unit inferred, M implied. The procedure:
as §2

The target in assay [5] is T4, recombinant cynomolgus monkey CD3 …. Description: Octet (BLI), conjugate captured on CH1 sensor, cy.CD3 d/e-Fc as analyte; unit inferred, M implied. The method, then:
as §2

The target in assay [6] is T3, recombinant human CD3 delta/epsilon …. Put plainly: Octet (BLI), conjugate captured on CH1 sensor, hu.CD3 d/e-Fc as analyte; unit inferred, M implied. The procedure:
as §2

The target in assay [7] is T1, cynomolgus CD3 on cynomolgus T cells …. Description: flow cytometry on HSC-F (cyCD3+) cells, detected with PE-conjugated anti-human kappa secondary antibody; control is the secondary antibody alone. The source says: (§3) Flow cytometry was used to test binding of conjugates to cell surface CD3 on human (Jurkat) and cynomolgus (HSC-F) T cells or PSMA on C4-2 cells.
Assay [8] concerns the target T2, human CD3 on human T cells (Jurkat). Description: flow cytometry on Jurkat (huCD3+) cells, detected with PE-conjugated anti-human kappa secondary antibody; control is the secondary antibody alone.
Description: as §3

T1 sequence (Q95LI5 22-198, chain 1 of 3): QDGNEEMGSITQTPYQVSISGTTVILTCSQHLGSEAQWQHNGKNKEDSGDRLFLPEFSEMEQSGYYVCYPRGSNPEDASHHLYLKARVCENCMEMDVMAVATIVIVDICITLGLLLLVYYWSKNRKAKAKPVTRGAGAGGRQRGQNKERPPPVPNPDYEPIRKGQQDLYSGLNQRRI
T1 sequence (Q95LI8 22-171, chain 2 of 3): as the sequence (P04234 22-171, chain 2 of 3) above, with I5V, N15K, I20V, S32T, D33N, I34N, T64A, S74N, V83L, H141R counted along it
T1 sequence (Q95LI7 23-181, chain 3 of 3): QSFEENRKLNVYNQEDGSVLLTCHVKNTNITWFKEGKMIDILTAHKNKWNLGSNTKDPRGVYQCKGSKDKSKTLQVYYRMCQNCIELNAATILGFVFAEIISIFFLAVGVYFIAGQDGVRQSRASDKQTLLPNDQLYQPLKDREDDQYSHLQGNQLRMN
T3 sequence (P04234 22-105, stated change not applied, chain 1 of 2): as the sequence (Q95LI8 22-105, stated change not applied, chain 1 of 2) above, with V5I, K15N, V20I, T32S, N33D, N34I, A64T, N74S, L83V counted along it
T3 sequence (P07766 23-126, stated change not applied, chain 2 of 2): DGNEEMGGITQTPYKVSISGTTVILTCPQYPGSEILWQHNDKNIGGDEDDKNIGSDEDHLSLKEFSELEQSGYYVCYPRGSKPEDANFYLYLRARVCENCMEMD

B1: huL5H2 (SEQ ID NOS: 40, 42), pAcF double mutant Fab, unconjugated (Fab, V domains shown)
VH: EVQLVESGGGLVQPGGSLKLSCAASGFTFNTYAMNWVRQASGKGLEWVARIRSKYNNYATYYADSVKDRFTISRDDSKNTLYLQMNSLKTEDTAVYYCVRHGNFGNSYVSWFAYWGQGTLVTVSS
VL: QAVVTQEPSLTVSPGGTVTLTCRSSTGAVTTSNYANWVQQKPDHLFRGLIGGTNKRAPGTPARFSGSLLGDKAALTISGAQPEDEAEYYCALWYSNLWVFGGGTKLTVLK
modifications: p-acetylphenylalanine (pAcF) in place of S205 (S205TAG); p-acetylphenylalanine (pAcF) in place of K141 (K141TAG)
notes: Expressed in E. coli with an orthogonal tRNA/synthetase; also called VL5 kappa 205TAG + H2 141TAG
B1: the values for the IC50 in assay [1] and in assay [2] were 3.8 nM and 5.9 nM, respectively.

B2: huL5H2_DI-1×DUPA (SEQ ID NOS: 39, 44) (Fab, V domains shown)
VH: B1 VH with K19R, S41P, K89R, T90A
VL: B1 VL
modifications: pAcF at position 141 conjugated by oxime to a DUPA-linker
notes: De-immunized Fab with a single DUPA on the heavy chain; also called L5H2-DI-1X-DUPA; L5H2_DI-1xDUPA
In the case of B2, the Kd in assay [3] is 21.2 nM; in assay [4], 11.3 nM; in assay [5], 3.29 nM; in assay [6], 4.83 nM.

B3: DI-huL5H2 (SEQ ID NOS: 40, 44), de-immunized pAcF mutant Fab, unconjugated (Fab, V domains shown)
VH: B1 VH with K19R, S41P, K89R, T90A
VL: B1 VL
modifications: p-acetylphenylalanine (pAcF) at light chain position 205 (205TAG); p-acetylphenylalanine (pAcF) at heavy chain position 141 (141TAG)
notes: The heavy chain carries the de-immunizing mutations K19R, S41P, K89R and T90A relative to huL5H2; also called huL5H2_DI
As to B3, the IC50 worked out at 3.4 nM in assay [1] and 4.6 nM in assay [2].

B4: huL5H2_DI-2×DUPA (SEQ ID NOS: 40, 44) (Fab, V domains shown)
VH: B1 VH with K19R, S41P, K89R, T90A
VL: B1 VL
modifications: pAcF at position 205 conjugated by oxime to p-TriA (DUPA-linker); pAcF at position 141 conjugated by oxime to p-TriA (DUPA-linker)
notes: De-immunized Fab with one DUPA on the heavy chain and one on the light chain; also called L5H2-DI-2X-DUPA; L5H2_DI-2xDUPA
Turning to B4, the Kd in assay [3] amounted to 11 nM; in assay [6] it was 5.13 nM.

B5: UCHT-1 (SEQ ID NOS: 84, 85) anti-CD3 Fab (Fab, V domains shown)
VH: EVQLVESGGGLVQPGGSLRLSCAASGYSFTGYTMNWVRQAPGKGLEWVALINPYKGVSTYNQKFKDRFTISVDKSKNTAYLQMNSLRAEDTAVYYCARSGYYGDSDWYFDVWGQGTLVTVSS
VL: DIQMTQSPSSLSASVGDRVTITCRASQDIRNYLNWYQQKPGKAPKLLIYYTSRLESGVPSRFSGSGSGTDYTLTISSLQPEDFATYYCQQGNTLPWTFGQGTKVEIKR
notes: The unconjugated UCHT-1 that was tested may carry pAcF residues; also called clone UCHT-1
Consider B5, for which the binding result in assay [7] is given as “no binding”; in assay [8], “binds”.

B6: UCHT-1-p-TriA (2×DUPA) (Fab, V domains shown)
VH: B5 VH
VL: B5 VL
modifications: one pAcF conjugated to p-TriA (DUPA-linker); position in UCHT-1 not stated
B6: the binding result in assay [7] is “no binding”.
